Reference: publication PMC5519287 (Cell reports, 2017)

Target: the molecule itself
Assay: single molecule analysis

B1: EGFP-S1C 4KA (domain or fragment, UniProt Q13586 342-465, looked up)
chain: YAPEALQKWLQLTHEVEVQYYNIKKQNAEKQLLVAKEGAEAIAAARNTLFGTFHVAHSSSLDDVDHKILTAKQALSEVTAALRERLHRWQQIEILCGFQIVNNPGIHSLVAALNIDPSWMGSTR
**Q.** With B1 as the protein, how does the “stoichiometry N” value read?
**A.** The value was 2.
